How the values were obtained:
AncSZ = assay: phosphorylation enrichment, bacterial display (enrichment ratio); higher = better substrate or ligand; peptides without Tyr show the background
EPHB1 = EPHB1 (UniProt P54762); assay: as above
EPHB2 = EPHB2 (UniProt P29323); assay: as above
FGFR1 = FGFR1 (UniProt P11362); assay: as above
FGFR3 = FGFR3 (UniProt P22607); assay: as above
Fer (mouse) = assay: as above
Fes = Fes (UniProt P07332); assay: as above
Fyn = Fyn (UniProt P06241); assay: as above
Hck = Hck (UniProt P08631); assay: as above
Chain of Hck (P08631 whole entry, looked up): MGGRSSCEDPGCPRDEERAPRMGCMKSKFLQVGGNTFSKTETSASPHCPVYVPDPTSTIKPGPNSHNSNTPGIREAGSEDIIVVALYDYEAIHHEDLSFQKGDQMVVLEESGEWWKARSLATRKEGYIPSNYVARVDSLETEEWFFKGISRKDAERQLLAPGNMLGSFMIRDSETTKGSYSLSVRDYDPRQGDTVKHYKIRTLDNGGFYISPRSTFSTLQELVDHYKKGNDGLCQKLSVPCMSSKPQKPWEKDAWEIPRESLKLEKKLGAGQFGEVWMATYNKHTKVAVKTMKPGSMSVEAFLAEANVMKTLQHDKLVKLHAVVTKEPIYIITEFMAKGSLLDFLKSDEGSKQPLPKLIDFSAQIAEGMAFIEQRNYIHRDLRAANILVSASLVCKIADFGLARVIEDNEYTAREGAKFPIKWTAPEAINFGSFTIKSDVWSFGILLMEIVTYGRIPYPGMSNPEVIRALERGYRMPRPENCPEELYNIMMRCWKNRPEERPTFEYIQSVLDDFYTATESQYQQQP

Jak2 = Jak2 (UniProt O60674); assay: as above
Chain of Jak2 (O60674 whole entry, looked up): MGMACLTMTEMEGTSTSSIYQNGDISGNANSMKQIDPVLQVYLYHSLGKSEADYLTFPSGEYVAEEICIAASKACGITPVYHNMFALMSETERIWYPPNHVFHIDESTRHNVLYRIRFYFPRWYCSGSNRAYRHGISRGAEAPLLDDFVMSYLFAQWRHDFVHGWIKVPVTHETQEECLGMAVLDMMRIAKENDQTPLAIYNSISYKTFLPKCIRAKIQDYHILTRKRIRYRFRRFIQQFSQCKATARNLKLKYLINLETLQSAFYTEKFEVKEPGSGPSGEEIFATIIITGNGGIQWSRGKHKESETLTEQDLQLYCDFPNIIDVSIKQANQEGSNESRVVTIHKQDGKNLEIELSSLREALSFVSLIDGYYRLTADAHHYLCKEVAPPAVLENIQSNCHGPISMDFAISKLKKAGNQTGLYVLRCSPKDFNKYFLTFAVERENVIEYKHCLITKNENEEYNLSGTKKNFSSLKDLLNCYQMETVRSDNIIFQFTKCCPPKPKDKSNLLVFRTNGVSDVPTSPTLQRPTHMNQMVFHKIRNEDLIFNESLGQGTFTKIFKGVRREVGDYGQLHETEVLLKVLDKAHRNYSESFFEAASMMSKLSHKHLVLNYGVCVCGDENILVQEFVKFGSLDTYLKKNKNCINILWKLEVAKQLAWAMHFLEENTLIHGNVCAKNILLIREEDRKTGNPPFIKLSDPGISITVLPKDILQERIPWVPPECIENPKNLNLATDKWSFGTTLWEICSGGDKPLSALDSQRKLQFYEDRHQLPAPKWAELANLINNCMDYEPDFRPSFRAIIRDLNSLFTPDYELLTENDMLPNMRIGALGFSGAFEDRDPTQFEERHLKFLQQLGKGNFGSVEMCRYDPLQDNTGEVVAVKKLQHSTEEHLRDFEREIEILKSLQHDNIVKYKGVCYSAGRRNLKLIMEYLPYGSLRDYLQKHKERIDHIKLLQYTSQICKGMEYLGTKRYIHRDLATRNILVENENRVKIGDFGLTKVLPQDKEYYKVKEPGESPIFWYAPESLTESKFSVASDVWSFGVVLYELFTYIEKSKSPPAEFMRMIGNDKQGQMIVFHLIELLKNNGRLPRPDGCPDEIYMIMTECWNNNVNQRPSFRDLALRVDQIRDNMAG

MERTK = MERTK (UniProt Q12866); assay: as above
c-Abl (mouse) = assay: as above
c-Src = assay: as above
Grb2 SH2 = Grb2 SH2 (UniProt P62993); assay: SH2 binding enrichment of the phosphorylated peptide, bacterial display (enrichment ratio); higher = better substrate or ligand; peptides without Tyr show the background
SHP2-C SH2 = assay: as above
c-Src SH2 = assay: as above
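Throughout, for SH2 binding enrichment of the phosphorylated peptide, bacterial display: peptide library displayed on the E. coli surface as eCPX fusions, selected cells deep-sequenced, score is each peptide's frequency after selection divided by its frequency in the input.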
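Throughout, for phosphorylation enrichment, bacterial display: 11-residue human phosphosite peptides and single-mutation variants displayed on the E. coli surface, counted by deep sequencing, each peptide's frequency after selection divided by its frequency in the unselected input library; frequency after pTyr selection over input frequency; kinase dosed for 20-30% of maximal phosphorylation in three min.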

Chain of FGFR3 (P22607 whole entry, looked up): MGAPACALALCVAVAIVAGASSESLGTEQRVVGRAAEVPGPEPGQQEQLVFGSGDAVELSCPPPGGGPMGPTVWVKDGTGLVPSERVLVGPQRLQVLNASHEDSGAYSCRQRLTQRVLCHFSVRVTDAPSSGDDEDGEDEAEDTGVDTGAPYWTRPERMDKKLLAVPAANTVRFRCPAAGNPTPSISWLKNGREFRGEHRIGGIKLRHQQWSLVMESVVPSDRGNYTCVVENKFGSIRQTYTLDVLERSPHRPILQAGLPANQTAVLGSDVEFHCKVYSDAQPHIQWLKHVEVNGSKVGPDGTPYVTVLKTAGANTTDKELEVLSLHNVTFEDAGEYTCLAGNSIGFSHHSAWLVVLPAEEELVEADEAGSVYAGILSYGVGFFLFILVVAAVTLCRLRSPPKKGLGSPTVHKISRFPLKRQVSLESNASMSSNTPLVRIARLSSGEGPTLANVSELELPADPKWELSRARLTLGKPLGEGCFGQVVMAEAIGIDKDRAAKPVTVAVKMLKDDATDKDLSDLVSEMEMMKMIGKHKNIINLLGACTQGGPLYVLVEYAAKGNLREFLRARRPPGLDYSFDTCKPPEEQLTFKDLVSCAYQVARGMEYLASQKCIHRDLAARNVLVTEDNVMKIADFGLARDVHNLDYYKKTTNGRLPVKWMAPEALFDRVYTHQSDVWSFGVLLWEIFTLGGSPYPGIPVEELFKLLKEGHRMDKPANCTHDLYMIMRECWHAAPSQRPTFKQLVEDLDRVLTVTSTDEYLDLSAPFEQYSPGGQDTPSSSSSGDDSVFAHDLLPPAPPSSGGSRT
Chain of EPHB1 (P54762 whole entry, looked up): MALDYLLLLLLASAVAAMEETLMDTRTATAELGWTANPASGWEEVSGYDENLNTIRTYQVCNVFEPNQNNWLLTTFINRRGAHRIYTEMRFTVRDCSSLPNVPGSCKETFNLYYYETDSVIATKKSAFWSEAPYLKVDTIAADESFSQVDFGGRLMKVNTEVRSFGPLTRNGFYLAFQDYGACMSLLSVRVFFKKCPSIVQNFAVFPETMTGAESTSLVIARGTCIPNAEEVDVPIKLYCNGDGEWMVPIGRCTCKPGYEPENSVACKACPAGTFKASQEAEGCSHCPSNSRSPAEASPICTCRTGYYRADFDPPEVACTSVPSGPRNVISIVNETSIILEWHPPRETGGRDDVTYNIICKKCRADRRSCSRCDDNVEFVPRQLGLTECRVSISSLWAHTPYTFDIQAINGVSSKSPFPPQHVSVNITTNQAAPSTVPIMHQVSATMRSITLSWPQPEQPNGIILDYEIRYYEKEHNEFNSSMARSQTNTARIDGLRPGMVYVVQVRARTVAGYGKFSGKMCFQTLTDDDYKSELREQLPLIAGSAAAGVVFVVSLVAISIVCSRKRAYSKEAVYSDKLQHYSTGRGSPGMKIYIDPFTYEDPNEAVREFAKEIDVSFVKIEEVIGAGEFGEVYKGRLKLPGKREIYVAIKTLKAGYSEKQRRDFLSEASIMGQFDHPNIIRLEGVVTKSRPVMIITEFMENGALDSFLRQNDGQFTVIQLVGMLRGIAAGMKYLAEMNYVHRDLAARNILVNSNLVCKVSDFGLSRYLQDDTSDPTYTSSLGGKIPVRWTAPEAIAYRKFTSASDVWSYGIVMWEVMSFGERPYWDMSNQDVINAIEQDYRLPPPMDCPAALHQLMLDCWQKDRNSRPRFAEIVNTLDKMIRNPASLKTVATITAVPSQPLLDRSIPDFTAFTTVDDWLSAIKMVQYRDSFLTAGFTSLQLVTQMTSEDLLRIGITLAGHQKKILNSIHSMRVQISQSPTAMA
Chain of Fyn (P06241 whole entry, looked up): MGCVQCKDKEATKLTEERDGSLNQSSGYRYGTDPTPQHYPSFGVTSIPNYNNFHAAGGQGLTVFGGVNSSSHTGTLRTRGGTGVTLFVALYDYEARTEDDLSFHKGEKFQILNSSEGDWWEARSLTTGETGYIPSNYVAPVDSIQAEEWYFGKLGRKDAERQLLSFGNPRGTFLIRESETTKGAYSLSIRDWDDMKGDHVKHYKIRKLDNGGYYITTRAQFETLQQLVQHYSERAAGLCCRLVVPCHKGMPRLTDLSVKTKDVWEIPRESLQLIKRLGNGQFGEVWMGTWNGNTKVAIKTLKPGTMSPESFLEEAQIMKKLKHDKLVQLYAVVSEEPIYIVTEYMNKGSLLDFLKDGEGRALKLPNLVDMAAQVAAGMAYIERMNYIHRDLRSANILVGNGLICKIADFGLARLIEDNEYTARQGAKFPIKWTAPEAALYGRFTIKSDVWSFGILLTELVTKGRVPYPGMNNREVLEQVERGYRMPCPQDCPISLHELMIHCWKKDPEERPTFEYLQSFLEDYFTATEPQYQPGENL
Chain of FGFR1 (P11362 whole entry, looked up): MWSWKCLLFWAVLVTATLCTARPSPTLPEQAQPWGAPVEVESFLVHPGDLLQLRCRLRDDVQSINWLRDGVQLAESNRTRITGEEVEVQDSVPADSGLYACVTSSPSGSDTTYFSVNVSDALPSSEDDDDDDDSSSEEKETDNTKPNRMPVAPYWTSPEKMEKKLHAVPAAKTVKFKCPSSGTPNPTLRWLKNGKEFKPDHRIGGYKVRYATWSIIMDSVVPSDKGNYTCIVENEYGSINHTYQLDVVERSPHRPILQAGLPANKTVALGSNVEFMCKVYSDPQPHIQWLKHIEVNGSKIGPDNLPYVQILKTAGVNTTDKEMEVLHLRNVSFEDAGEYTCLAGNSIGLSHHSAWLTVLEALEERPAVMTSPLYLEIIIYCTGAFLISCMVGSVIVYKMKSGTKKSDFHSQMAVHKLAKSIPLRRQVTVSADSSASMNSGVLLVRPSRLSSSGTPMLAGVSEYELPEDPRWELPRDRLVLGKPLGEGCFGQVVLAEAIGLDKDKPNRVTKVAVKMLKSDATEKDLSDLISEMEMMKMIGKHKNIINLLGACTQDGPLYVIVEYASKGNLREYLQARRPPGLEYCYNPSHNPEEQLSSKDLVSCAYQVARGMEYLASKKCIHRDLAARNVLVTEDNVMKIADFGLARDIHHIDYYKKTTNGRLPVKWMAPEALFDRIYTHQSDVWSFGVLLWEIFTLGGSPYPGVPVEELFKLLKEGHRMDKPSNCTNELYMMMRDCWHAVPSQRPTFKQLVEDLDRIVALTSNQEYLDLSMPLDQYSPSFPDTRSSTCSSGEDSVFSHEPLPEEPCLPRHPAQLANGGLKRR

| Sequence | SH2 binding enrichment (Grb2 SH2) | SH2 binding enrichment (SHP2-C SH2) | SH2 binding enrichment (c-Src SH2) | phosphorylation enrichment (AncSZ) | phosphorylation enrichment (EPHB1) | phosphorylation enrichment (EPHB2) | phosphorylation enrichment (FGFR1) | phosphorylation enrichment (FGFR3) | phosphorylation enrichment (Fer (mouse)) | phosphorylation enrichment (Fes) | phosphorylation enrichment (Fyn) | phosphorylation enrichment (Hck) | phosphorylation enrichment (Jak2) | phosphorylation enrichment (MERTK) | phosphorylation enrichment (c-Abl (mouse)) | phosphorylation enrichment (c-Src) |
| --- | --- | --- | --- | --- | --- | --- | --- | --- | --- | --- | --- | --- | --- | --- | --- | --- |
| KYGTNYRVGSS [CPO_Y278] | 1.01 | 1.23 | 0.835 | 0.438 | 0.307 | 0.388 | 0.338 | 0.362 | 0.308 | 0.549 | 0.416 | 0.415 | 0.403 | 0.377 | 0.466 | 0.389 |
| YSGLAYTMERS [GLUD1_Y512_H507Y] | 0.682 | 1.48 | 1.59 | 0.765 | 0.386 | 0.355 | 0.463 | 0.558 | 0.398 | 0.833 | 1.09 | 1.64 | 0.873 | 0.849 | 0.607 | 1.43 |
| DLWEKYMDCGG [HAP1_Y440_R437W] | 0.768 | 0.617 | 0.55 | 1.44 | 0.976 | 0.775 | 0.6 | 0.854 | 0.578 | 1.42 | 0.509 | 0.596 | 1.12 | 0.458 | 0.738 | 0.436 |
| PLEGKYEWQEV [CDKN1B_Y74] | 0.675 | 0.516 | 3.88 | 1.29 | 0.57 | 0.572 | 0.619 | 0.743 | 0.613 | 1.49 | 0.379 | 0.483 | 1.11 | 0.452 | 0.816 | 0.465 |
| QMVGKYASSFM [AVPR2_Y124_M123K_YF] | 0.894 | 0.732 | 0.467 | 0.613 | 0.772 | 0.341 | 0.516 | 0.626 | 0.431 | 0.992 | 0.564 | 0.413 | 0.774 | 0.642 | 1.15 | 0.635 |
| YGLQAYTEVKT [ALDH2_Y502] | 0.984 | 2.38 | 6.95 | 1.27 | 0.721 | 0.67 | 0.59 | 0.842 | 0.704 | 1.29 | 0.546 | 0.488 | 1.06 | 0.55 | 0.834 | 0.439 |
| ETAVHYIHDGI [GATD3A_Y250_L248V] | 0.678 | 0.465 | 0.504 | 0.631 | 0.419 | 0.43 | 0.445 | 0.543 | 0.426 | 0.726 | 0.389 | 0.399 | 0.649 | 0.453 | 0.606 | 0.461 |
| ESDGAYIHRMQ [CCDC137_Y125] | 0.857 | 0.656 | 0.541 | 0.726 | 0.408 | 0.493 | 0.419 | 0.514 | 0.414 | 0.873 | 0.365 | 0.378 | 0.824 | 0.406 | 0.703 | 0.403 |
| VHNLDYYKKTT [FGFR3_Y647] | 0.796 | 0.556 | 0.389 | 0.527 | 0.428 | 0.474 | 0.369 | 0.771 | 0.394 | 0.624 | 0.39 | 0.408 | 0.469 | 0.414 | 0.443 | 0.371 |
| ATVQNYLPKCI [A2M_Y817_L815Q] | 0.827 | 0.581 | 0.497 | 0.626 | 0.39 | 0.482 | 0.462 | 0.489 | 0.406 | 0.862 | 0.369 | 0.346 | 0.688 | 0.372 | 0.687 | 0.362 |
| GDEEDYYEIPG [EGFR_opt_no-pY_2015] | 0.87 | 0.67 | 1.84 | 3.2 | 0.919 | 1.26 | 6.05 | 5.79 | 2.82 | 1.64 | 1.19 | 0.963 | 1.34 | 0.811 | 0.968 | 1.32 |
| HNVPIYEGYAL [ACTA1_Y168] | 0.881 | 1.01 | 2.97 | 1.56 | 26 | 35.1 | 0.792 | 0.616 | 24.7 | 5.3 | 16.9 | 15.1 | 1.06 | 13.1 | 13.2 | 12.6 |
| REATAYLHGRL [AGXT_Y297_A295T] | 0.794 | 0.571 | 0.483 | 0.665 | 0.539 | 0.662 | 0.534 | 0.533 | 0.615 | 0.793 | 0.595 | 0.488 | 0.871 | 0.374 | 0.63 | 0.521 |
| YEPDAYYDLDQ [ELP5_Y302_D303Y] | 0.807 | 0.626 | 1.88 | 1.82 | 1.05 | 0.833 | 8.16 | 6.94 | 0.919 | 1.56 | 1.62 | 0.852 | 1.61 | 0.65 | 0.861 | 2.06 |
| RLQKLYLDRNL [IGFALS_Y248] | 0.884 | 0.634 | 0.393 | 0.812 | 1.4 | 0.43 | 0.776 | 0.787 | 0.795 | 1.23 | 0.811 | 0.975 | 1.63 | 0.868 | 1.16 | 0.851 |

Second part, led by results:

| SH2 binding enrichment (Grb2 SH2) | SH2 binding enrichment (SHP2-C SH2) | SH2 binding enrichment (c-Src SH2) | Sequence | phosphorylation enrichment (AncSZ) | phosphorylation enrichment (EPHB1) | phosphorylation enrichment (EPHB2) | phosphorylation enrichment (FGFR1) | phosphorylation enrichment (FGFR3) | phosphorylation enrichment (Fer (mouse)) | phosphorylation enrichment (Fes) | phosphorylation enrichment (Fyn) | phosphorylation enrichment (Hck) | phosphorylation enrichment (Jak2) | phosphorylation enrichment (MERTK) | phosphorylation enrichment (c-Abl (mouse)) | phosphorylation enrichment (c-Src) |
| --- | --- | --- | --- | --- | --- | --- | --- | --- | --- | --- | --- | --- | --- | --- | --- | --- |
| 2.09 | 1.58 | 1.78 | SFCFRYRCAAW [SUMF1_Y344_R349W_YF] | 0.933 | 0.473 | 0.465 | 0.501 | 0.613 | 0.454 | 0.829 | 0.41 | 0.442 | 0.638 | 0.449 | 0.45 | 0.363 |
| 0.91 | 0.715 | 0.583 | KFANSYIMEPL [TCTE3_Y87_R88I] | 0.853 | 0.39 | 0.531 | 0.524 | 0.629 | 0.498 | 0.606 | 0.529 | 0.432 | 0.476 | 0.37 | 0.436 | 0.712 |
| 1.09 | 1.39 | 0.857 | RYVYYYSYLLK [PTEN_Y178] | 1.74 | 2.55 | 1.64 | 4.48 | 3.85 | 1.09 | 1.82 | 1.15 | 1.99 | 2.76 | 5.99 | 1.83 | 2.48 |
| 0.804 | 0.739 | 0.483 | EAEALYQTTFQ [KRT73_Y325_K328T] | 1.98 | 1.27 | 1.53 | 0.644 | 0.972 | 11.9 | 1.27 | 3.38 | 4.59 | 1.13 | 4.9 | 2.1 | 4.32 |
| 1.01 | 0.945 | 0.726 | LRFDSYWSFCN [SLC20A2_Y433_S434W_YF] | 1.25 | 1.04 | 0.774 | 1.64 | 1.4 | 0.506 | 1.33 | 2.12 | 2.1 | 1.49 | 0.572 | 0.781 | 2.72 |
| 0.93 | 0.482 | 0.381 | NLTVNYKKNLT [SQOR_Y259_I264T] | 0.883 | 0.429 | 0.629 | 0.376 | 0.615 | 0.503 | 1.24 | 0.608 | 0.539 | 1.05 | 0.547 | 1.03 | 0.502 |
| 0.589 | 0.358 | 0.545 | TRNREYDDIDD [TTYH2_Y424_D423E] | 0.904 | 0.53 | 0.496 | 0.548 | 0.693 | 0.533 | 0.789 | 0.585 | 0.609 | 0.57 | 0.559 | 0.54 | 0.581 |
| 0.728 | 0.61 | 0.83 | DRTVNYVLKCR [PLEKHG4_Y1068] | 1.15 | 0.668 | 0.67 | 0.517 | 0.778 | 0.566 | 1.17 | 0.515 | 0.688 | 0.898 | 0.357 | 0.764 | 0.43 |
| 1.12 | 26.8 | 4.46 | FSLIHYARIVD [MYH7_Y582_G584R] | 1.13 | 0.702 | 0.63 | 0.576 | 0.819 | 0.588 | 1.29 | 0.528 | 0.506 | 1.01 | 0.418 | 0.762 | 0.426 |
| 0.628 | 0.58 | 0.504 | RSSKRYLKTRS [LPL_Y329_M328R] | 1.4 | 0.919 | 1.11 | 1.03 | 1.11 | 0.852 | 1.17 | 0.937 | 0.894 | 0.725 | 1.24 | 1.03 | 0.713 |
| 1.05 | 1.46 | 0.57 | EYITRYIASLK [PSMA7_Y110] | 0.708 | 0.498 | 0.416 | 0.456 | 0.415 | 0.414 | 0.717 | 0.416 | 0.51 | 0.526 | 0.499 | 0.569 | 0.477 |
| 0.683 | 0.707 | 0.432 | LLPNAYIYVVQ [L1CAM_Y418_A415P] | 2.28 | 1.71 | 1.32 | 1.34 | 1.5 | 0.539 | 2.47 | 1.05 | 0.908 | 1.69 | 1.01 | 1.07 | 1 |
| 0.885 | 1.11 | 0.726 | VPDANYTSDEE [STK33_Y439] | 1.54 | 0.649 | 0.801 | 0.699 | 0.796 | 0.658 | 1.38 | 0.701 | 0.61 | 1.19 | 0.621 | 2.42 | 0.586 |
| 11 | 1.46 | 1.92 | QLPATYMNLGP [MST1R_Y1360] | 0.547 | 2.99 | 0.548 | 0.766 | 0.616 | 0.406 | 0.747 | 0.706 | 0.741 | 1.42 | 6.84 | 0.87 | 1.23 |

Source: the supplement of paper PMC10065799, “High-throughput profiling of sequence recognition by tyrosine kinases and SH2 domains using bacterial peptide display” (eLife, 2023)
